Reference: patent US20100099610A1 (published 2010)
Residue numbers refer to the chain shown, from its start. Names and notes keep the numbering of the source.

Legend:
Assay in all cases: cell-based or functional assay
[1] = target: wild type human growth hormone (human, UniProt P01241 27-217)
hGHQ40N = hGHQ40N (human, UniProt P01241 27-217)
hGHQ141N = hGHQ141N (human, UniProt P01241 27-217)
hGHQ141N, sequence (P01241 27-217 Q167N): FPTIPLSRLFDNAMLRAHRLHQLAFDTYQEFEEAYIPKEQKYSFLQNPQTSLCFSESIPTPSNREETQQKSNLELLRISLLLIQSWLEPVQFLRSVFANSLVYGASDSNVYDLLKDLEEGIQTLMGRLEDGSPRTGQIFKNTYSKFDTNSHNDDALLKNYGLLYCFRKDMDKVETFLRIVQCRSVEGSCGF

hGHQ40N, sequence (P01241 27-217 Q66N): as the sequence (P01241 27-217 Q167N) above, with Q40N, N141Q counted along it
wild type human growth hormone, sequence (P01241 27-217): as the sequence (P01241 27-217 Q167N) above, with N141Q counted along it

B1: AlaPro-mTGase from S. mobaraensis (enzyme)
chain: APDSDDRVTPPAEPLDRMPDPYRPSYGRAETVVNNYIRKWQQVYSHRDGRKQQMTEEQREWLSYGCVGVTWVNSGQYPTNRLAFASFDEDRFKNELKNGRPRSGETRAEFEGRVAKESFDEEKGFQRAREVASVMNRALENAHDESAYLDNLKKELANGNDALRNEDARSPFYSALRNTPSFKERNGGNHDPSRMKAVIYSKHFWSGQDRSSSADKRKYGDPDAFRPAPGTGLVDMSRDRNIPRSPTSPGEGFVNFDYGWFGAQTEADADKTVWTHGNHYHAPNGSLGAMHVYESKFRNWSEGYSDFDRGAYVITFIPKSWNTAPDKVKQGWP
Q: For B1, which “RS (relative selectivity against AlaPro-mTGase from S. mobaraensis)” value [1] is on record?
A: Its value is 1.

B2: GlyPro-mTGase_Y75A from S. ladakanum (enzyme)
chain: GPDSDERVTPPAEPLDRMPDPYRPSYGRAETIVNNYIRKWQQVYSHRDGRKQQMTEEQREWLSYGCVGVTWVNSGQAPTNRLAFAFFDEDKYKNELKNGRPRSGETRAEFEGRVAKDSFDEAKGFQRARDVASVMNKALENAHDEGAYLDNLKKELANGNDALRNEDARSPFYSALRNTPSFKDRNGGNHDPSKMKAVIYSKHFWSGQDRSGSSDKRKYGDPEAFRPDRGTGLVDMSRDRNIPRSPTSPGESFVNFDYGWFGAQTEADADKTVWTHGNHYHAPNGSLGAMHVYESKFRNWSDGYSDFDRGAYVVTFVPKSWNTAPDKVKQGWP
Q: Which “RSA Q141” value (hGHQ40N) does the source give for B2 here?
A: The value was 0.06 relative to wild type TGase.

Q: What about the “RSA Q40” value (hGHQ141N) of the same binder?
A: Its value is 0.03 relative to wild type TGase.

Q: And the “RS (relative selectivity against AlaPro-mTGase from S. mobaraensis)” value [1]?
A: Its value is 3.

B3: S. ladakanum GlyPro-TGase mutant S250F (enzyme)
chain: B2 chain with A77Y, S252F
Q: Which results are given for B3?
A: RSA Q141 (hGHQ40N): 2.63 relative to wild type TGase; RSA Q40 (hGHQ141N): 1.85 relative to wild type TGase

B4: GlyPro-mTGase_Y75F from S. ladakanum (enzyme)
chain: B2 chain with A77F
Q: For B4, which “RS (relative selectivity against AlaPro-mTGase from S. mobaraensis)” value [1] is on record?
A: Its value is 5.1.

B5: GlyPro-mTGase_Y62H_Y75F from S. ladakanum (enzyme)
chain: B2 chain with Y64H, A77F, K329T
Q: With B5 as the binder, how does the “RS (relative selectivity against AlaPro-mTGase from S. mobaraensis)” value [1] read?
A: Its value is 6.4.

B6: GlyPro-mTGase_Y75N from S. ladakanum (enzyme)
chain: B2 chain with A77N
Q: For B6, which “RS (relative selectivity against AlaPro-mTGase from S. mobaraensis)” value [1] is on record?
A: The value was 3.4.

B7: S. ladakanum GlyPro-TGase mutant S250L (enzyme)
chain: B2 chain with A77Y, S252L
Q: For B7, which “RSA Q141” value (hGHQ40N) is on record?
A: The value was 3.59 relative to wild type TGase.

Q: And the “RSA Q40” value (hGHQ141N)?
A: The value was 1.9 relative to wild type TGase.

B8: S. ladakanum GlyPro-TGase mutant S250C (enzyme)
chain: B2 chain with A77Y, S252C
Q: How did the “RSA Q141” value (hGHQ40N) turn out when B8 was run?
A: The value was 5.34 relative to wild type TGase.

Q: And the “RSA Q40” value (hGHQ141N)?
A: The value was 3.02 relative to wild type TGase.

B9: S. ladakanum GlyPro-TGase mutant S250G (enzyme)
chain: B2 chain with A77Y, S252G
Q: How did the “RSA Q141” value (hGHQ40N) turn out when B9 was run?
A: Its value is 2.42 relative to wild type TGase.

Q: And the “RSA Q40” value (hGHQ141N)?
A: The value was 1.77 relative to wild type TGase.

B10: S. ladakanum GlyPro-TGase mutant S250H (enzyme)
chain: B2 chain with A77Y, S252H
Q: Which “RSA Q141” value (hGHQ40N) does the source give for B10 here?
A: The value was 2.25 relative to wild type TGase.

Q: And the “RSA Q40” value (hGHQ141N)?
A: Its value is 1.4 relative to wild type TGase.

B11: GlyPro-mTGase_Y62H_Y75N from S. ladakanum (enzyme)
chain: B2 chain with Y64H, A77N
Q: With B11 as the binder, how does the “RS (relative selectivity against AlaPro-mTGase from S. mobaraensis)” value [1] read?
A: The value was 4.6.

B12: S. ladakanum GlyPro-TGase mutant S250D (enzyme)
chain: B2 chain with A77Y, S252D
Q: How did the “RSA Q141” value (hGHQ40N) turn out when B12 was run?
A: Its value is 1.04 relative to wild type TGase.

Q: What about the “RSA Q40” value (hGHQ141N) of the same binder?
A: Its value is 0.76 relative to wild type TGase.

B13: GlyPro-mTGase from S. ladakanum (enzyme)
chain: B2 chain with A77Y
Q: For B13, which “RS (relative selectivity against AlaPro-mTGase from S. mobaraensis)” value [1] is on record?
A: The value was 1.8.
